Read-outs that look alike come from different tables or passages of the source.
B1: 401.11.86 (antibody, IgG4, V domains shown)
VH: QVQLVGSGGGLVKPGRSLRLSCAASGFTFDDYAMHWVRQAPGKGLEWVATIIWNSAIIGYADSVKGRFIVSRDNAKNSLYLQMNSLRAEDMALYYCAKDMCSSGGCPDGYFDSWGQGTLVTVSS
VL: DIQMTQSPSSVSASVGDRVTITCRASQHISSWLAWYQQKPGKAPNLLIYAASSLQSGVSSRFSGSGSGTDFTLTISSLQPEDFATYYCQQANRFPLTFGGGTKLEIKR
B2: 401.11.27 (antibody, V domains shown)
VH: QVQLVGSGGGLVKPGRSLRLSCAASGFTFDDYAMHWVRQAPGKGLEWVATIIWNSAIIGYADSVKGRFTISRDNAKNSLYLQMNSLRAEDMALYYCAKDMCSSSGCPDGYFDSWGQGTLVTVSS
VL: DIQMTQSPSSVSASVGDRVTITCRASQHISSWLAWYQQKPGKAPNLLIYAASSLQSGVPSRFSGSGSGTDFTLTISSLQPEDFATYYCQQANRFPLTFGGGTKLEIK
B3: 402.8.53 (antibody, IgG4, V domains shown)
VH: QVQLQESGPGLVKPSETLSLTCAVYGGSFSGYYWSWIRQPPGKGLEWIGEINHAGSTNYNPSLKSRVTISVDTSKNQFSLKLSSVTAADTAVYYCARGEIYDFWKSYLDVWGKGTTVTVSS
VL: QTVVTQEPSLTVSPGGTVTLTCASSSGAVSSGNFPNWFQQKPGQAPRALIFSASNKHSWTPARFSGSLLGGKAVLTLSGVQPEDEAEYYCLLYFGDTQLGVFGGGTKVTVLG
B4: 402.8.86 (antibody, IgG4, V domains shown)
VH: QVQLQESGPGLVKPSETLSLTCAVYGGSFSGYYWSWIRQPPGKGLEWIGEINHAGSTNYNPSLKSRVTISVDTSKNQFSLKLSSVTAADTAVYYCARGEIYDFYNSYMDVWGKGTTVTVSS
VL: QTVVTQEPSLTVSPGGTVTLTCASSSGAVSSGNFPNWFQQKPGQAPRALIFSASNKHSWTPARFSGSLLGGKAVLTLSGVQPEDEAEYYCLLYFGDTQLGVFGGGTKVTVLG
notes: IgG4 (S228P)
B5: 402.8.60 (antibody, IgG4, V domains shown)
VH: QVQLQESGPGLVRPSETLSLTCAVYGGSFSGYYWSWIRQPPGKGLEWIGEINHSGSTNYNPSLKSRVTISVDTSKNQFSLKLSSVTAADTAVYYCARGEIYDFYNSYMDVWGKGTTVTVSS
VL: QTVVTQEPSLTVSPGGTVTLTCASSSGAVSSGNFPNWFQQKPGQAPRALIFSASNKHSWTPARFSGSLLGGKAVLTLSGVQPEDEAEYYCLLYFGDTQLGVFGGGTKVTVLG
notes: IgG4 (S228P)
B6: 402.8.84 (antibody, IgG4, V domains shown)
VH: QVQLQESGPGLVKPSETLSLTCAVYGGSFSGYYWSWIRQPPGKGLEWIGEINHAGSTNYNPSLKSRVTISVDTSKNQFSLKLSSVTAADTAVYYCARGEIYDFYKSYLDVWGKGTTVTVSS
VL: QTVVTQEPSLTVSPGGTVTLTCASSSGAVSSGNFPNWFQQKPGQAPRALIFSASNKHSWTPARFSGSLLGGKAVLTLSGVQPEDEAEYYCLLYFGDTQLGVFGGGTKVTVLG
notes: IgG4 (S228P)
B7: 402.8.87 (antibody, IgG4, V domains shown)
VH: QVQLQESGPGLVKPSETLSLTCAVYGGSFSGYYWSWIRQPPGKGLEWIGEINHAGSTNYNPSLKSRVTISVDTSKNQFSLKLSSVTAADTAVYYCARGEIYDFYKSYMDVWGKGTTVTVSS
VL: QTVVTQEPSLTVSPGGTVTLTCASSSGAVSSGNFPNWFQQKPGQAPRALIFSASNKHSWTPARFSGSLLGGKAVLTLSGVQPEDEAEYYCLLYFGDTQLGVFGGGTKVTVLG
notes: IgG4 (S228P)

Experiments:
Human CD1d on cells [1] = biological target: T1, Human CD1d on cells (human, UniProt P15813 20-335); assay: cell-based or functional assay
T1 sequence (looked up): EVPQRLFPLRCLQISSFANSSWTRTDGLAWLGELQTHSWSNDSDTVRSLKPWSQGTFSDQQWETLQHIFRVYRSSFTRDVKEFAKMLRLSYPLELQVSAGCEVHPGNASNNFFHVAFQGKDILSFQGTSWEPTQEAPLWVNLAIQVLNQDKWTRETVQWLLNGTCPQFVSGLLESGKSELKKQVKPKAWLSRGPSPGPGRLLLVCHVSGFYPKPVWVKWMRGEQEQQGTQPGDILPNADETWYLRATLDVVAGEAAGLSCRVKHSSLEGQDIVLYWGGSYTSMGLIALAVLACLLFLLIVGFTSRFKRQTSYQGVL

Human CD1d/β2M [2] = biological target: T2, Human CD1d/β2M (human, UniProt P15813 20-301; P61769 21-119); assay: SPR, transfection supernatant
T2 construct: also called hCD1d; recombinant human CD1d

Human CD1d on cells [3] = biological target: T1, Human CD1d on cells; assay: cell-based or functional assay; remark: listed apart in the source
Human CD1d on cells [4] = biological target: T1, Human CD1d on cells; assay: cell-based or functional assay; remark: listed apart in the source
Human CD1d/β2M [5] = biological target: T2, Human CD1d/β2M; assay: SPR, Protein A purified IgG

Binder	NKT IFN-γ EC50 (THP-1) (Human CD1d on cells [1])	NKT IFN-γ EC50 (moDC) (Human CD1d on cells [1])	NKT IL-4 EC50 (THP-1) (Human CD1d on cells [1])	NKT IL-4 EC50 (moDC) (Human CD1d on cells [1])	binding result (Human CD1d/β2M [2])	NKT IFN-γ EC50 (moDC) (Human CD1d on cells [3])	NKT IL-13 EC50 (moDC) (Human CD1d on cells [3])	NKT IFN-γ EC50 (moDC) (Human CD1d on cells [4])	NKT IL-4 EC50 (moDC) (Human CD1d on cells [4])	Kd (Human CD1d/β2M [5])
B1	1.29 ng/mL	0.359 ng/mL	0.509 ng/mL	1.74 ng/mL	–	–	–	–	–	–
B2	–	–	–	–	no binding	–	–	–	–	–
B3	–	–	–	–	–	0.658 ng/mL	1.52 ng/mL	277 ng/mL	105 ng/mL	–
B4	–	–	–	–	–	–	–	14.3 ng/mL	0.721 ng/mL	0.357 nM
B5	–	–	–	–	–	0.244 ng/mL	0.189 ng/mL	24.7 ng/mL	26.8 ng/mL	0.198 nM
B6	–	–	–	–	–	0.516 ng/mL	0.663 ng/mL	30.6 ng/mL	0.593 ng/mL	0.587 nM
B7	–	–	–	–	–	–	–	25.9 ng/mL	1.01 ng/mL	0.344 nM
